Measured values reported in patent US11306156.
Where two headings read alike, the source gives them in different places. Each block holds one substance with its values, some of them ahead of it.

Key:
[1] = molecular target: tissue factor (TF) antigen (UniProt P13726); experiment: SPR, His-captured Fab, TF as analyte, 1:1 fit; estimated (*) from a Fab differing only in L chain tag
[2] = molecular target: tissue factor (TF) antigen (UniProt P13726); experiment: SPR, His-captured Fab, TF as analyte; against wild-type D3H44 Fab; KD of this row is an estimated (*) value
[3] = molecular target: D3H44 Fab heavy chain L124E_K145M_Q179E; experiment: LCCA, SPR of light chain tags; L1:L2 DNA 1:3 normalized to 1:1; competitor m8
[4] = molecular target: D3H44 Fab heavy chain L124R_S186K; experiment: as above
[5] = molecular target: D3H44 Fab heavy chain L124R_S186R; experiment: as above
[6] = molecular target: D3H44 Fab heavy chain L124R_S186R (H1 of LCCA sets 9516 and 9515)
[7] = molecular target: D3H44 Fab heavy chain L124R_S186R (H1 of LCCA sets 9516 and 9515); remark: listed apart in the source
[8] = molecular target: D3H44 Fab heavy chain L124E_L143D_K145T (H1 of LCCA sets 9214, 9217, 9216, 9219, 9220, 9225, 9228, 9229); experiment: LCCA: H1 co-expressed with L1 and L2 (DNA 333:250:749 ng), His-tag capture on SPR chip, light chain tags detected with anti-HA/anti-FLAG; competitor L1 Q124K_V133G_S176R_T178K
[9] = molecular target: D3H44 Fab heavy chain L124E_L143D_K145T, C-terminal ABD2-His6 tag; experiment: LCCA co-expression, SPR tag read-out; DNA 1:3 norm. to 1:1; competing light chain m11
[10] = molecular target: D3H44 Fab heavy chain L124E_L143E_K145M, C-terminal ABD2-His6 tag; experiment: as above
[11] = molecular target: D3H44 Fab heavy chain L124E_L143E_K145T, C-terminal ABD2-His6 tag; experiment: as above
[12] = molecular target: D3H44 Fab heavy chain L124R_Q179K, C-terminal ABD2-His6 tag; experiment: as above
[13] = molecular target: D3H44 Fab heavy chain L124E_L143E_K145M, C-terminal ABD2-His6 tag; experiment: LCCA co-expression, SPR tag read-out; DNA 1:3 norm. to 1:1; competing light chain m12
[14] = molecular target: D3H44 Fab heavy chain L124E_L143E_K145T, C-terminal ABD2-His6 tag; experiment: as above
[15] = molecular target: D3H44 Fab heavy chain L124R_Q179K, C-terminal ABD2-His6 tag; experiment: as above
[16] = molecular target: D3H44 Fab heavy chain L124E_L143E_K145T, C-terminal ABD2-His6 tag; experiment: LCCA co-expression, SPR tag read-out; DNA 1:3 norm. to 1:1; competing light chain m14
[17] = molecular target: D3H44 Fab heavy chain L124R_Q179K, C-terminal ABD2-His6 tag; experiment: as above
[18] = molecular target: D3H44 Fab heavy chain L124E_L143D_K145M, C-terminal ABD2-His6 tag; experiment: LCCA (co-expression, SPR read-out of light chain tags), L1:L2 DNA 1:3 normalised to 1:1; competitor m13
[19] = molecular target: D3H44 Fab heavy chain L124R_Q179K, C-terminal ABD2-His6 tag; experiment: as above
[20] = molecular target: D3H44 Fab heavy chain L124E_L143D_K145M, C-terminal ABD2-His6 tag; experiment: LCCA (co-expression, SPR read-out of light chain tags), L1:L2 DNA 1:3 normalised to 1:1; competitor m14
[21] = molecular target: D3H44 Fab heavy chain L124E_L143D_K145T, C-terminal ABD2-His6 tag; experiment: as above
[22] = molecular target: D3H44 Fab heavy chain L124R_Q179K, C-terminal ABD2-His6 tag; experiment: as above
[23] = molecular target: D3H44 Fab heavy chain L124E_L143E_K145T, C-terminal ABD2-His6 tag; experiment: LCCA set 9271 (co-expression; SPR read-out of light-chain tags; L1:L2 DNA 1:3, normalized to 1:1); competing light chain m17
[24] = molecular target: D3H44 Fab heavy chain L124R_D146N_Q179K, C-terminal ABD2-His6 tag; experiment: LCCA set 9350 (co-expression; SPR read-out of light-chain tags; L1:L2 DNA 1:3, normalized to 1:1); competing light chain m17
[25] = molecular target: D3H44 Fab heavy chain L124E_K145T_Q179E; experiment: LCCA, SPR of light chain tags; L1:L2 DNA 1:3 normalized to 1:1; competitor m8
[26] = molecular target: D3H44 Fab heavy chain L124E_K145T_Q179E; experiment: LCCA, SPR of light chain tags; L1:L2 DNA 1:3 normalized to 1:1; competitor m9
[27] = molecular target: D3H44 Fab heavy chain L124R_S186R; experiment: as above
[28] = molecular target: D3H44 Fab heavy chain L124E_L143E_K145M (H1 of LCCA sets 9269, 9266, 9267, 9260, 9262, 9263); experiment: LCCA: H1 co-expressed with L1 and L2 (DNA 333:250:749 ng), His-tag capture on SPR chip, light chain tags detected with anti-HA/anti-FLAG; competitor L1 Q124K_V133G_S176R_T178K
[29] = molecular target: D3H44 Fab heavy chain L124E_L143E_K145M (H1 of LCCA sets 9269, 9266, 9267, 9260, 9262, 9263); experiment: LCCA: H1 co-expressed with L1 and L2 (DNA 333:250:749 ng), His-tag capture on SPR chip, light chain tags detected with anti-HA/anti-FLAG; competitor L1 Q124K_V133G_S176R_T178R
[30] = molecular target: D3H44 Fab heavy chain L124R_D146N_Q179K; experiment: LCCA, SPR of light chain tags; L1:L2 DNA 1:3 normalized to 1:1; competitor m8
[31] = molecular target: D3H44 Fab heavy chain L124R_Q179K; experiment: as above
[32] = molecular target: D3H44 Fab heavy chain L124R_D146N_Q179K; experiment: LCCA, SPR of light chain tags; L1:L2 DNA 1:3 normalized to 1:1; competitor m9
[33] = molecular target: D3H44 Fab heavy chain L124E_L143E_K145T; experiment: LCCA, SPR of light chain tags; L1:L2 DNA 1:3 normalized to 1:1; competitor m10
[34] = molecular target: D3H44 Fab heavy chain L124R_S186K; experiment: as above
[35] = molecular target: D3H44 Fab heavy chain L124R_D146N_Q179K (H1 of LCCA sets 9358, 9359, 9357, 9351, 9352, 9353, 9354, 9350); experiment: LCCA: H1 co-expressed with L1 and L2 (DNA 333:250:749 ng), His-tag capture on SPR chip, light chain tags detected with anti-HA/anti-FLAG; competitor L2 Q124K_V133G_Q160K_S176R

Substance: D3H44 Fab heterodimer H1L1 of LCCA Set # 9104 (H1 L124E; L1 S131T_V133G_S176R_T178Y)
Kd [1]: 160 pM | Change in median values of KD compared to wild type (-(log(KD design)-log(KD wt))) [2]: -0.01 log

Substance: D3H44 light chain Q124K_V133G_Q160K_S176R, N-terminal HA or FLAG tag
H1L1:H1L2 normalized median ratio (% (ratio normalized to 100)) [9]: 94 | H1L1:H1L2 normalized median scalar value ln(r1/f1) [9]: 2.69 | H1L1:H1L2 normalized median ratio (% (ratio normalized to 100)) [10]: 94 | H1L1:H1L2 normalized median scalar value ln(r1/f1) [10]: 2.72 | H1L1:H1L2 normalized median ratio (% (ratio normalized to 100)) [11]: 95 | H1L1:H1L2 normalized median scalar value ln(r1/f1) [11]: 3 | H2L2:H2L1 normalized median ratio (% (ratio normalized to 100)) [12]: 8 | H1L1:H1L2 normalized median ratio (% (ratio normalized to 100)) [13]: 92 | H1L1:H1L2 normalized median ratio (% (ratio normalized to 100)) [14]: 95 | H1L1:H1L2 normalized median scalar value ln(r1/f1) [14]: 2.92 | H2L2:H2L1 normalized median ratio (% (ratio normalized to 100)) [15]: 8 | H1L1:H1L2 normalized median ratio (% (ratio normalized to 100)) [16]: 94 | H2L2:H2L1 normalized median ratio (% (ratio normalized to 100)) [17]: 10 | H1L1:H1L2 normalized median ratio [18]: 91% | H1L1:H1L2 normalized median scalar value ln(r1/f1) [18]: 2.36 | H2L2:H2L1 normalized median ratio [19]: 8% | H1L1:H1L2 normalized median ratio [20]: 92% | H1L1:H1L2 normalized median ratio [21]: 92% | H2L2:H2L1 normalized median ratio [22]: 8% | H1L1:H1L2 normalized median ratio (H1L1 part) [23]: 95% | H1L1:H1L2 normalized median scalar value ln(r1/f1) [23]: 2.92 | H2L2:H2L1 normalized median ratio (H2L1 part) [24]: 18%

Other lines, results leading:

H1L1:H1L2 normalized median ratio (% of heavy chain paired) [3]: 8 | H2L2:H2L1 normalized median ratio (% of heavy chain paired) [4]: 92 | H2L2:H2L1 normalized median ratio (% of heavy chain paired) [5]: 92 | median LCCA performance normalized to a L1:L2 DNA ratio of 1:1 (ratio H1-L1:H1-L2), H1-L1 share (ratio part of 100) [6]: 95 | median LCCA performance normalized to a L1:L2 DNA ratio of 1:1 (ratio H1-L1:H1-L2), H1-L1 share (ratio part of 100) [7]: 94 | median LCCA performance normalized to a L1:L2 DNA ratio of 1:1 (ratio H1-L1:H1-L2), H1-L2 share (ratio part of 100) [8]: 15
Substance: D3H44 light chain Q124E_V133G_S176D_T178D_T180E

H1L1:H1L2 normalized median ratio (% of heavy chain paired) [3]: 6 | H1L1:H1L2 normalized median ratio (% of heavy chain paired) [25]: 5 | H2L2:H2L1 normalized median ratio (% of heavy chain paired) [5]: 88 | H1L1:H1L2 normalized median ratio (% of heavy chain paired) [26]: 4 | H2L2:H2L1 normalized median ratio (% of heavy chain paired) [27]: 85 | median LCCA performance normalized to a L1:L2 DNA ratio of 1:1 (ratio H1-L1:H1-L2), H1-L2 share (ratio part of 100) [8]: 18 | median LCCA performance normalized to a L1:L2 DNA ratio of 1:1 (ratio H1-L1:H1-L2), H1-L2 share (ratio part of 100) [28]: 37 | median LCCA performance normalized to a L1:L2 DNA ratio of 1:1 (ratio H1-L1:H1-L2), H1-L2 share (ratio part of 100) [29]: 38
Substance: D3H44 light chain V133G_S176D_T178D_T180E

H1L1:H1L2 normalized median ratio (% of heavy chain paired) [3]: 8 | H1L1:H1L2 normalized median ratio (% of heavy chain paired) [25]: 5 | H2L2:H2L1 normalized median ratio (% of heavy chain paired) [30]: 83 | H2L2:H2L1 normalized median ratio (% of heavy chain paired) [31]: 93 | H1L1:H1L2 normalized median ratio (% of heavy chain paired) [26]: 3 | H2L2:H2L1 normalized median ratio (% of heavy chain paired) [32]: 80 | H1L1:H1L2 normalized median ratio (% of heavy chain paired) [33]: 5 | H2L2:H2L1 normalized median ratio (% of heavy chain paired) [34]: 92 | median LCCA performance normalized to a L1:L2 DNA ratio of 1:1 (ratio H1-L1:H1-L2), H1-L1 share (ratio part of 100) [35]: 74
Substance: D3H44 light chain V133G_S176D_T178E_T180E
